Data from doi:10.1101/2024.10.12.618001.

Experiment: SEC

Substance: CD95L-IZ-His (His8-TEV-Cys-IZ-CD95L (137-281), secreted form)
- percent trimers in solution (Gaussian fit of the SEC curve): occurs in a trimeric state (i.e. 62%)
